Source: paper PMC4027176, “Modulating TRAP-mediated transcription termination by AT during transcription of the leader region of the Bacillus subtilis trp operon” (Nucleic Acids Research, 2014)

B3: His-tagged N20C (Asn20 replaced with Cys) TRAP (natural protein, B. subtilis, UniProt P19466 1-75, looked up)
chain: MNQKHSSDFVVIKAVEDGVCVIGLTRGTDTKFHHSEKLDKGEVIIAQFTEHTSAIKVRGEALIQTAYGEMKSEKK
notes: TRAP of Bacillus subtilis (mtrB), 75 amino acid subunit, with Asn20 replaced by Cys; six histidine residues at the carboxy terminus of each subunit; Cross-linking was done in the presence of 1 mM tryptophan; also called N20C TRAP; N20C TRAP 11mer; source: purified using Ni-agarose; not shown: His6, C-terminal, kept; copies: 11

Tests used:
[1] = molecular target: T1, TRAP (trp RNA binding Attenuation Protein), WT (Bacillus subtilis) (UniProt P19466); assay: pull-down of blocked TEC, immunoblot; settings: Filter binding: 16 mM Tris pH 8.0, 250 mM KCl, 1 mM tryptophan, 10 ug yeast RNA, 37 C, 20 min. Pull-down: 20 mM Tris-HCl pH 8.0, 6 mM MgCl2, 2 mM DTT, 100 mM …
T1 sequence: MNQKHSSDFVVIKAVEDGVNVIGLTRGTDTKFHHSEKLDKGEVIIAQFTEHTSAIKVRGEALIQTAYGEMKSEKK

[2] = molecular target: T1, TRAP (trp RNA binding Attenuation Protein), WT (Bacillus subtilis); assay: filter binding; settings: Filter binding: 16 mM Tris pH 8.0, 250 mM KCl, 1 mM tryptophan, 10 ug yeast RNA, 37 C, 20 min. Pull-down: 20 mM Tris-HCl pH 8.0, 6 mM MgCl2, 2 mM DTT, 100 mM …
[3] = molecular target: T2, TRAP-AT = 1:1 complex, (N20C)1(WT)10 TRAP 11mer crosslinked with BMOE to one D7C AT trimer N20C;D7C (Bacillus subtilis) (UniProt P19466+P19466+O31466); assay: filter binding; settings: Filter binding: 16 mM Tris pH 8.0, 250 mM KCl, 1 mM tryptophan, 10 ug yeast RNA, 37 C, 20 min. Pull-down: 20 mM Tris-HCl pH 8.0, 6 mM MgCl2, 2 mM DTT, 100 mM …
T2 sequence 1: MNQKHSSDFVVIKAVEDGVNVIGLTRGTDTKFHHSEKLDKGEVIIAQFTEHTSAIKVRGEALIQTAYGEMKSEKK
T2 sequence 2: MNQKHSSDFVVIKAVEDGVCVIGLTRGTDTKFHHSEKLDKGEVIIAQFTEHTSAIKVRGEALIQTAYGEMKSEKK
T2 sequence 3: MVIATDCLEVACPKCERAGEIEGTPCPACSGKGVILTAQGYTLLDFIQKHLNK

[4] = molecular target: T3, trp RNA binding Attenuation Protein (TRAP), wild type, 11mer (B. subtilis) (UniProt P19466)
T3 sequence: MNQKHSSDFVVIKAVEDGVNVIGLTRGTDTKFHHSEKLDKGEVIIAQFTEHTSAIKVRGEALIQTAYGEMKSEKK

[5] = molecular target: B3; assay: pull-down; limiting His-tagged N20C TRAP mixed with 50-fold excess WT TRAP, denatured in 5 M guanidine-HCl 1 h at room temperature, renatured by dialysis in 50 mM phosphate pH 8.0; hetero-11mers held on Ni agarose; settings: both partners purified
[6] = molecular target: the molecule itself; assay: cross-linking; BMOE (0.04 mM, 8 Å sulfhydryl cross-linker); N20C TRAP 0.02 mM and/or D7C AT 0.08 mM; 1 mM tryptophan; PBS pH 7.2, 0.5 mM EDTA; 37°C 1 h; 15% SDS gel, Coomassie

Question: For “Eco116 nascent trp leader RNA (~11 repeats exposed)”, which binding signal [1] is on record?
Answer: 100 % TRAP bound

Question: With “GAGUUGAGUUGAGUUGAGUUGAGUUGAGUUGAGUUGAGUUGAGUUGAGUUGAGUU [(GAGUU)11 RNA]” as the molecule, how does the Kd [2] read?
Answer: 0.55 nM

Question: What about the Kd [3] of the same molecule?
Answer: 3.7 nM

Question: How did the binding signal [1] turn out when “Δ9-11Eco116 nascent trp leader RNA (7 repeats exposed)” was run?
Answer: 100 % TRAP bound

Question: “Δ10-11Eco116 nascent trp leader RNA (8 repeats exposed)” was tested. Which binding signal [1] did it give?
Answer: 100 % TRAP bound

B1: Anti-TRAP (AT), wild type, trimer (natural protein)
chain: MVIATDDLEVACPKCERAGEIEGTPCPACSGKGVILTAQGYTLLDFIQKHLNK
Question: B1 was tested. Which in vitro transcription attenuation, Eco116 template; percent of transcripts terminated when AT was added after TRAP had bound the nascent transcript (post) [4] did it give?
Answer: 80%

B2: trp RNA binding Attenuation Protein (TRAP), wild type, 11mer (natural protein, B. subtilis, UniProt P19466 1-75, looked up)
chain: MNQKHSSDFVVIKAVEDGVNVIGLTRGTDTKFHHSEKLDKGEVIIAQFTEHTSAIKVRGEALIQTAYGEMKSEKK
notes: 11 identical subunits of 75 amino acids in a ring; also called WT TRAP; TRAP 11mer; copies: 11
Question: Does B2 bind [5]?
Answer: binds

Question: Does B3 bind [6]?
Answer: binds

B4: AT containing a Cys substitution at residue 7 (D7C AT) (natural protein, B. subtilis, UniProt O31466 1-53, looked up)
chain: MVIATDCLEVACPKCERAGEIEGTPCPACSGKGVILTAQGYTLLDFIQKHLNK
notes: Anti-TRAP (AT) of Bacillus subtilis with Asp7 replaced by Cys; source: purified as described by Chen and Gollnick (19)
Question: Does B4 bind [6]?
Answer: binds
